Reference: publication PMC3691460 (The Journal of Cell Biology, 2013)

Experiments:
[1] = target: αIIbβ3 integrin headpiece (UniProt P08514); assay: crystal structure
[2] = tested on: αIIbβ3 headpiece ligand binding site; assay: Occupancy of ligand binding site by soaked RGD peptide; settings: 10 mM GRGDSP, Mg/Ca (5 mM Mg/1 mM Ca), 24 h, closed headpiece crystals
α4β7 headpiece = settings: EM; ref Yu et al., 2012; cited from earlier work
[3] = target: T1, αIIbβ3 integrin headpiece (UniProt P08514;P05106); assay: crystal structure
T1 sequence 1: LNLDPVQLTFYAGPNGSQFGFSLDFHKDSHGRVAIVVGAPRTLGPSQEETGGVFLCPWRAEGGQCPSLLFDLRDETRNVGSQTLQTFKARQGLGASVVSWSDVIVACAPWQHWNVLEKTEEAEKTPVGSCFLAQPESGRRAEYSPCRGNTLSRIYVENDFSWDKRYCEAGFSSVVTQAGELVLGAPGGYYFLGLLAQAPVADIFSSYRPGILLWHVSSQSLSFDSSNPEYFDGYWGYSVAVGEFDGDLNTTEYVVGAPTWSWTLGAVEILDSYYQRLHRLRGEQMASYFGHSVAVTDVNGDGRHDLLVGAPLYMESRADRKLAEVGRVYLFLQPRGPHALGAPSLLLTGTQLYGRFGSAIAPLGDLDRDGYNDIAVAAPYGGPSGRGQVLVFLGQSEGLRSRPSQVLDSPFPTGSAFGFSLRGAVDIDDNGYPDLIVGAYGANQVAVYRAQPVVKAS
T1 sequence 2: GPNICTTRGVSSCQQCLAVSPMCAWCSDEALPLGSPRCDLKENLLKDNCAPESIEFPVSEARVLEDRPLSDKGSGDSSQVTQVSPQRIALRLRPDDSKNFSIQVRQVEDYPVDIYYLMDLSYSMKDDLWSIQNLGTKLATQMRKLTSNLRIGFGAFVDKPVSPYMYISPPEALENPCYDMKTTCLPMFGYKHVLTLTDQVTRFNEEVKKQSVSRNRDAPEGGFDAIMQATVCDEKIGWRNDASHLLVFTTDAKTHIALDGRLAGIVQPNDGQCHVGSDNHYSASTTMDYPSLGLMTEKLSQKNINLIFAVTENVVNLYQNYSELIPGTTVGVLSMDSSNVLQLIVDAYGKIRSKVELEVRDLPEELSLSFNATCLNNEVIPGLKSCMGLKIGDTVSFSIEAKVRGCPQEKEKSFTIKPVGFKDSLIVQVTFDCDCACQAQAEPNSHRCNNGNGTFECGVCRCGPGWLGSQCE

[4] = target: T2, β3 subunit PSI, hybrid, βI, and I-EGF-1 domains (UniProt P05106); assay: crystal structure
T2 sequence: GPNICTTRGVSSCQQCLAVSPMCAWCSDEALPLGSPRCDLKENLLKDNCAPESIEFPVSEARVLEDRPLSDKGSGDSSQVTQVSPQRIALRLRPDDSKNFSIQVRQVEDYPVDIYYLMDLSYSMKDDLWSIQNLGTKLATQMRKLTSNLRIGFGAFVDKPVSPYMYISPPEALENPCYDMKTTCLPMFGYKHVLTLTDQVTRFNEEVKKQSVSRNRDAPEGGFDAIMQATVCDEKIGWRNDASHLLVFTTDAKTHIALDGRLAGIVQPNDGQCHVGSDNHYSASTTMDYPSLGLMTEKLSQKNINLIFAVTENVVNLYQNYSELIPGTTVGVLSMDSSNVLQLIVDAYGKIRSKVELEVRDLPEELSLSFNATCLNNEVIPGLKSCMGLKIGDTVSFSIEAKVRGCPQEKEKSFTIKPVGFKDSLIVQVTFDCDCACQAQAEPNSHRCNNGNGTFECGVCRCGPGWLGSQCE

[5] = target: T3, αIIb subunit β-propeller domain (UniProt P08514); assay: crystal structure
T3 sequence: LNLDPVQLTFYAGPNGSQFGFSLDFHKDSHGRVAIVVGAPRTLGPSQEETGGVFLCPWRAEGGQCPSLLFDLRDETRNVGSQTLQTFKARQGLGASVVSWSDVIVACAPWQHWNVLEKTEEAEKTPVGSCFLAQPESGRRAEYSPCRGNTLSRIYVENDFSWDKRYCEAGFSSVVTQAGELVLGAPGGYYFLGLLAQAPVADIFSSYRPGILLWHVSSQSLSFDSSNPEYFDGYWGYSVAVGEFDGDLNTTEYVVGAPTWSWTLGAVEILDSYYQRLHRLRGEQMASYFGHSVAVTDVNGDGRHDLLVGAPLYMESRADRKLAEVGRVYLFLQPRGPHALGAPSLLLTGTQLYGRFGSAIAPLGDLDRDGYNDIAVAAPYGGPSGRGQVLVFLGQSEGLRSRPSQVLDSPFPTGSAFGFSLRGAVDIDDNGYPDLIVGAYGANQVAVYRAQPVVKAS

Work on GRGDSP peptide yielded a Kd [1] of 0.34 to 10 mM and a fold higher affinity of the open than of the closed headpiece [1] greater than 200 fold.

For N=C(N)NCCC[C@H](NC(=O)CN)C(=O)NCC(=O)N[C@@H](CC(=O)O)C(=O)N[C@@H](CO)C(=O)N1CCC[C@H]1C(=O)O [GRGDSP], the “Bound ligand / occupation of the ligand binding site” value [2] was “diffraction revealed bound peptide”.

B1: MAdCAM-1: ligand binding to the α4β7 headpiece (protein, UniProt Q13477 19-382, looked up)
Mucosal addressin cell …: QSLQVKPLQVEPPEPVVAVALGASRQLTCRLACADRGASVQWRGLDTSLGAVQSDTGRSVLTVRNASLSAAGTRVCVGSCGGRTFQHTVQLLVYAFPDQLTVSPAALVPGDPEVACTAHKVTPVDPNALSFSLLVGGQELEGAQALGPEVQEEEEEPQGDEDVLFRVTERWRLPPLGTPVPPALYCQATMRLPGLELSHRQAIPVLHSPTSPEPPDTTSPESPDTTSPESPDTTSQEPPDTTSPEPPDKTSPEPAPQQGSTHTPRSPGSTRTRRPEISQAGPTQGEVIPTGSSKPAGDQLPAALWTSSAVLGLLLLALPTYHLWKRCRHLAEDDTHPPASLRLLPQVSAWAGLRGTGQVGISPS
For B1, the “State of the headpiece upon binding” value (α4β7 headpiece) is listed as “either an intermediate or open state”.

GRGDSPK [GRGDSPK peptide]: binds [3].

GRGDSP [GRGDSP peptide]: binds [4]; binds [5].
